Measured values as given in US9463249B2, “Crystalline insulin-conjugates” (SmartCells, Inc., priority 2009, dated 2016).

What was measured:
lectins = test: Relative lectin binding affinities of saccharide ligands (FIG. 1); conditions: four sugars shown in FIG. 1
[1] = rat, in vivo, iv
Protocol: To determine the elimination rate in the presence of elevated glucose levels, one hour before the start of the experiment one rat cannula was connected to a syringe infusion pump containing a sterile 50% w/v glucose solution. The pump infusion rate was adjusted by the experimenter to ensure that the blood glucose levels in the animal remained above 300 mg/dL at all times during the experiment. Blood glucose was measured using commercially available test strips (Precision Xtra, Abbott Laboratories, Abbott Park, Ill.). […]
(§1) Throughout the experiment, blood glucose was measured using commercially available test strips (Precision Xtra, Abbott Laboratories, Abbott Park, Ill.). Blood from each timepoint was centrifuged at 4 C to collect the serum, and serum insulin or serum conjugate concentrations were subsequently measured with a commercially available ELISA kit (Iso-Insulin ELISA, Mercodia, Uppsala, Sweden). […]
as §1

[2] = Glucose-responsive PK under constant i.v. infusion with i.p. glucose injection at 240 min; set-up: species or system Sprague-Dawley rats; conditions: rat, in vivo, iv
Protocol: In this example, the i.v. elimination rate experiment described in Example 30 was modified from a single i.v. bolus of 0.4 mg conjugate/kg body weight to a continuous i.v. infusion.
A blood sample was taken at t=0 min, after which the constant i.v. infusion was initiated.
Throughout the experiments, blood glucose was measured using commercially available test strips (Precision Xtra, Abbott Laboratories, Abbott Park, Ill.). Blood from each timepoint was centrifuged at 4 C to collect the serum, and serum insulin or serum conjugate concentrations were subsequently measured with a commercially available ELISA kit (Iso-Insulin ELISA, Mercodia, Uppsala, Sweden).

| Molecule | lectin binding affinity relative to the other sugars (lectins) | effect of sugars on elimination rate, in words [1] | hypoglycemia prior to glucose injection [2] |
| --- | --- | --- | --- |
| NCCO[C@H]1O[C@H](CO[C@H]2O[C@H](CO)[C@@H](O)[C@H](O)[C@@H]2O)[C@@H](O)[C@H](O[C@H]2O[C@H](CO)[C@@H](O)[C@H](O)[C@@H]2O)[C@@H]1O [AETM, Man (α-1,3)-Man(α-1.6)-α-1-aminoethylmannopyranoside] | highest affinity of the four sugars shown | – | – |
| RHI: recombinant human insulin (MW=5808 Da, Sigma Aldrich), unconjugated control | – | not affected in the presence of sugars | causes significant hypoglycemia prior to glucose injection |
